Measured values as given in patent EP1073891B1, “METHOD OF PREDICTING RECEPTOR MODULATING ACTIVITY” (Duke University, priority 1998, dated 1999).

Legend:
ER535-stop = target: T1, ER535-stop (Homo sapiens, UniProt P03372); test: Mammalian two-hybrid with ERα AF-2 mutants (Examples 4.3, 101.3); format: cell-based; details: mammalian two-hybrid (Fig. 9)
T1 construct: mutant ER-535 STOP was truncated after residue V535; expressed in transfected cells
T1 sequence (P03372 1-534): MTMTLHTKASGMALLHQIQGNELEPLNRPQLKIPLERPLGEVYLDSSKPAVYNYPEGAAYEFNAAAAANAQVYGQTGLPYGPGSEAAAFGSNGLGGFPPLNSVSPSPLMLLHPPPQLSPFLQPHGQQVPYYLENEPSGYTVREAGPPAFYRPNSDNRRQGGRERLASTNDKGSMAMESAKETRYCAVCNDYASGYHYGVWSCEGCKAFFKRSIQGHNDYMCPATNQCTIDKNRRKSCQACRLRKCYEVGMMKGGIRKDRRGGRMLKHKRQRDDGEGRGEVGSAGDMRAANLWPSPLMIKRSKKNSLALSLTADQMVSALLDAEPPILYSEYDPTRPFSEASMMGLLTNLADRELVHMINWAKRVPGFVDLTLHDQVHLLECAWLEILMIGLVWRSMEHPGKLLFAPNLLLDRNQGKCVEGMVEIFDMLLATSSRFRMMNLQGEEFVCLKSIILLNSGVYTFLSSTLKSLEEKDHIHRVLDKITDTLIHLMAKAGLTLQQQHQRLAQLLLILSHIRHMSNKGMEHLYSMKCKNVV
Source text: Peptide sequences representing each class was fused to the DNA binding domain (DBD) of the yeast transcription factor Ga14. HepG2 cells were then transiently transfected with expression vectors for ERα-VP16 and the Gal4-peptide fusion proteins. In addition, a luciferase reporter construct under the control of 5 copies of a Ga14 upstream enhancer element was also transfected along with a pCMV-β galactosidase vector to normalize for transfection efficiency. Transfection of the Ga14 DBD alone is included as control. Cells were then induced with various ligands as indicated in the figure and assayed for luciferase activity and β galactosidase activity. Normalized response was obtained by dividing the luciferase activity by the β galactosidase activity.
Three ERα mutants were compared with wild-type ERα. ER-LL was characterized by mutations L540A/L541A. Mutant ER3X was characterized by mutations D538N/E542Q/D545N. Finally, mutant ER-535 STOP was truncated after residue V535. […] Experimental design is the same as in figure 7 except that either (A) ER3X (B) ERLL or (C) ER535-stop was analyzed for binding to conformation sensitive peptides.
To test whether different LXXLL motif peptides interact within the same region of ER, mammalian two hybrid assays were used. Selected peptide sequences and different ER mutants (ER-LL, ER-3X, ER-535 STOP) were expressed as fusion proteins to Gal4DBD and VP16 (TAD), respectively.

ERα = target: T2, ERα (Homo sapiens, UniProt P03372); test: Disruption of ER mediated transcriptional activity, C3-Luc reporter in HepG2 cells (Example 4.4); format: cell-based; details: Gal4-peptide fusion; for block of the partial agonist activity of tamoxifen: 4-OH tamoxifen activated ER; for inhibition of the ability of estradiol to activate transcription: estradiol (10 nM) activated ER
T2 sequence (P03372 1-595): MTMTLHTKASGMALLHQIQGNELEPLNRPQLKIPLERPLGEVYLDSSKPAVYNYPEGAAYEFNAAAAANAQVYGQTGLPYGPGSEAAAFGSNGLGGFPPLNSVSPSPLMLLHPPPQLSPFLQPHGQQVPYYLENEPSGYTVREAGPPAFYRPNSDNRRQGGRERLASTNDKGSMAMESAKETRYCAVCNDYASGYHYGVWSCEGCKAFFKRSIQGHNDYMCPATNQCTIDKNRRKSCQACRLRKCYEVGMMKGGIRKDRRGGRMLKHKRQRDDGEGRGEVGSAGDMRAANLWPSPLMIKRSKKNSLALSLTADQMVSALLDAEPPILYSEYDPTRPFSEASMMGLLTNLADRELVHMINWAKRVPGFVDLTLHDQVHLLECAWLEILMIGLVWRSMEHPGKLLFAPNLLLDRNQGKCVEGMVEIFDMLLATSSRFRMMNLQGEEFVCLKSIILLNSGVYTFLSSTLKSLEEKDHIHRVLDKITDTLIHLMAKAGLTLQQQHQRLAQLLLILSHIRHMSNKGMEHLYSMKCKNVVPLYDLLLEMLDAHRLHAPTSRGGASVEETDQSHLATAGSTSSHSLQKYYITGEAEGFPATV
Source text: Then HepG2 cells were transfected as above except that expression vectors for Gal4-peptide fusions were included as indicated in 10B. […] Increasing amounts of input plasmid for each Gal4-peptide fusion is also shown with the resulting transcriptional activity presented as % activation of control.

Sequence: SSLTSRDFGSWYASR [α II]
- interaction with the ER535-stop mutant receptor (ER535-stop): largely unaffected
- block of the partial agonist activity of tamoxifen (ERα): efficiently block
- inhibition of the ability of estradiol to activate transcription (ERα): up to 50%

Sequence: SSNHQSSRLIELLSR [α/β I]
- interaction with the ER535-stop mutant receptor (ER535-stop): unable to interact
- block of the partial agonist activity of tamoxifen (ERα): is not
- inhibition of the ability of estradiol to activate transcription (ERα): up to 50%

Sequence: SSPGSREWFKDMLSR [α/β V]
- interaction with the ER535-stop mutant receptor (ER535-stop): loss of the tamoxifen specificity
- block of the partial agonist activity of tamoxifen (ERα): efficiently block
- block of estradiol mediated transcription (ERα): inability

Sequence: SSWDMHQFFWEGVSR [α/β III]
- interaction with the ER535-stop mutant receptor (ER535-stop): loss of the tamoxifen specificity
- block of the partial agonist activity of tamoxifen (ERα): efficiently block
- block of estradiol mediated transcription (ERα): inability
